We go through 4 molecules from US20200123239A1 (PROTHENA BIOSCIENCES, published 2020).

Experiment [1] deals with recombinant purified hTau-P301L (human) (UniProt P10636). Nature of the experiment: SPR (Biacore T200), antibody captured on anti-human or anti-mouse antibody, hTau-P301L as analyte. On the technique in general: SPR reads the build-up and loss of mass on a sensor chip optically.
Experiment [2] deals with T1, tau peptide fragment, residues 25-44 of SEQ ID NO: 1 (human).
T1 construct: Proteolytic fragment (LysC and trypsin digests) of rTau, precipitated with 16B5 and identified by MALDI-TOF/TOF
T1 peptide: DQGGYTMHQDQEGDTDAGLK
Briefly: precipitation of digest fragments with 16B5, HPLC, MALDI-TOF/TOF (LysC and trypsin digests).
Experimental: (§1) The human tau sequence with 4 microtubule binding repeats and no N-terminal inserts, and containing a P301L mutation (rTau), was expressed in E. coli and purified. […] Enzymatic digests of 200 ug of tau were carried out with one of four different proteases: trypsin (which cleaves at the carboxyl end of arginine and lysine), chymotrypsin (which primarily cleaves at the carboxyl end of tyrosine, tryptophan, phenylalanine and leucine), LysC (which cleaves at the carboxyl end of lysine), or GluC (which cleaves after glutamate residues and rarely after aspartate residues). All proteases were obtained from Thermo Scientific, and digests were performed for 16 h at 37° C. […] Precipitates were thoroughly washed in PBS containing 300 mM NaCl and 0.5% NP-40, then eluted with 1M NaCl in 100 mM glycine, pH 2.8. Eluates were dried under vacuum and resuspended in 0.1% trifluoroacetic acid (TFA). […] Peak fractions were collected, dried and resuspended in distilled water. Peptide masses and identities were determined by MALDI-TOF/TOF.

Experiment [3] concerns the target T2, Δ23-32 deletion mutant of tau (rTau) (human, UniProt P10636 1-758).
T2 construct: Deletion mutagenesis of rTau; Tested as clarified bacterial lysate on Western blots; also called A23-32
Briefly: Western blot of bacterial lysates, 16B5 at 0.2 µg/mL. For orientation: Immunoblotting shows a protein as a band on a membrane.
Experimental: (§2) To control for sample loading, Tau46, an antibody with specificity for the C-terminal region of tau (C-terminal epitope), was used to stain duplicate blots. Both antibodies were used at a concentration of 0.2 μg/mL. Images were captured using a Licor Odyssey fluorescent scanner. The following deletion mutants of tau were made and analyzed in this manner: Δ5-24, Δ23-32, Δ25-44, Δ30-39, and Δ37-46.

In experiment [4] the target is T3, tau peptide fragment, residues 24-44 of SEQ ID NO: 1 (human).
T3 construct: Proteolytic fragment (trypsin digest) of rTau, precipitated with 16B5 and identified by MALDI-TOF/TOF
T3 peptide: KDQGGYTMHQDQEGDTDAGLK
Nature of the experiment: precipitation of digest fragments with 16B5, HPLC, MALDI-TOF/TOF (trypsin digest).
Experimental: as §1

Experiment [5] addresses T4, human tau with 4 microtubule binding repeats and no N-terminal inserts, containing a P301L mutation (rTau) (human, UniProt P10636 2-758).
T4 construct: Expressed in E. coli and purified; also called full-length Tau; wild-type Tau (WT) on the blots
Nature of the experiment: Western blot of bacterial lysate, stained with 16B5 at 0.2 ug/mL.
Experimental: as §2

Experiment [6] addresses T5, Δ5-24 deletion mutant of tau (rTau) (human, UniProt P10636-6 1-383).
T5 construct: Deletion mutagenesis of rTau; Tested as clarified bacterial lysate on Western blots; also called A5-24
The description is as above.
Experimental: as §2

Experiment [7] has as its target T6, Δ30-39 deletion mutant of tau (rTau) (human, UniProt P10636 1-758).
T6 construct: Deletion mutagenesis of rTau; Tested as clarified bacterial lysate on Western blots; also called A30-39
Briefly: Western blot of bacterial lysates.
Experimental: as §2

The target in experiment [8] is T7, Δ25-44 deletion mutant of tau (rTau) (human, UniProt P10636 1-758).
T7 construct: Deletion mutagenesis of rTau; Tested as clarified bacterial lysate on Western blots; also called A25-44
Briefly: Western blot of bacterial lysates.
Experimental: as §2

Residue numbers refer to the chain shown, from its start.

recombinant purified hTau-P301L (human), sequence (P10636 other isoform, or with tags, fused parts or gaps P301L P301L): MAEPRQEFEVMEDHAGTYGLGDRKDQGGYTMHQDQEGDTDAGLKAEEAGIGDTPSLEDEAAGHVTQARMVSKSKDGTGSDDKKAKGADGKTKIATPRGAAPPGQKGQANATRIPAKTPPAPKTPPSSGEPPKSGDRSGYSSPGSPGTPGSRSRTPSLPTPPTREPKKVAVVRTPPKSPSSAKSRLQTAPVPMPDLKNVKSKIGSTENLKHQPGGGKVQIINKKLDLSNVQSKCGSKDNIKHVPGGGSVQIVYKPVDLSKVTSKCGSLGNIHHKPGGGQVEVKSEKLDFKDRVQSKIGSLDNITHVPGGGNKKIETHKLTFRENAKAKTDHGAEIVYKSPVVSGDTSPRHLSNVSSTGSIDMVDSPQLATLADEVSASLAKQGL
T5 sequence (P10636 other isoform, or with tags, fused parts or gaps mutant): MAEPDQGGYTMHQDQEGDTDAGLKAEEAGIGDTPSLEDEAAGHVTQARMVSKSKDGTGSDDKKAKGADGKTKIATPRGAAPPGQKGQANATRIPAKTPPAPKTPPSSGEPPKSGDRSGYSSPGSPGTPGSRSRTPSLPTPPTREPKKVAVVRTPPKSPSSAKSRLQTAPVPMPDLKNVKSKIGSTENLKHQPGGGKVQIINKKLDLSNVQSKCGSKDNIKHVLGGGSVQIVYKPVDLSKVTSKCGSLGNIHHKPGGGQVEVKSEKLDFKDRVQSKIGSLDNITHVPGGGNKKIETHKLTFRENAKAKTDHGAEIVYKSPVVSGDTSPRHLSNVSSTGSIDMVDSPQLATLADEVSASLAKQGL
T7 sequence (P10636 other isoform, or with tags, fused parts or gaps mutant): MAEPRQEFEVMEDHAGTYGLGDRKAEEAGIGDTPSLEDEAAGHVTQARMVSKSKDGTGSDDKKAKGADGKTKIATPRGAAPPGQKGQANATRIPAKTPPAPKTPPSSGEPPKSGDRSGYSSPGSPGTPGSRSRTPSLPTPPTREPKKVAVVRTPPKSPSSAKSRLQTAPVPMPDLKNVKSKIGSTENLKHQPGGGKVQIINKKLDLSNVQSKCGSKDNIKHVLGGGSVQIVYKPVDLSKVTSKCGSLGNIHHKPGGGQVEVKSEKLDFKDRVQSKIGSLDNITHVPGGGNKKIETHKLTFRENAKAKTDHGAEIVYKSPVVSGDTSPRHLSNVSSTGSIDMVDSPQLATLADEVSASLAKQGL
T2 sequence (P10636 other isoform, or with tags, fused parts or gaps mutant): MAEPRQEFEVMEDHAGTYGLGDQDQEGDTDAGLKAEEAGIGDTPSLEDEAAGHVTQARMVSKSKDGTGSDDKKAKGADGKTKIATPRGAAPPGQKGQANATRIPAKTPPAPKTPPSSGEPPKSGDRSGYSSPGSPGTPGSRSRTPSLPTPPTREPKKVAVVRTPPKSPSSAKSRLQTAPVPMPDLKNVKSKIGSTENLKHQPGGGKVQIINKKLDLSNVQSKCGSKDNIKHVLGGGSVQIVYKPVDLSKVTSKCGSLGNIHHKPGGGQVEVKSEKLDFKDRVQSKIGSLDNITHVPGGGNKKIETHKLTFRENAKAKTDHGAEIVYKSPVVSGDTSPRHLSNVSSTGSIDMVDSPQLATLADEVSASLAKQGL
T4 sequence (P10636 other isoform, or with tags, fused parts or gaps P301L P301L limits assumed): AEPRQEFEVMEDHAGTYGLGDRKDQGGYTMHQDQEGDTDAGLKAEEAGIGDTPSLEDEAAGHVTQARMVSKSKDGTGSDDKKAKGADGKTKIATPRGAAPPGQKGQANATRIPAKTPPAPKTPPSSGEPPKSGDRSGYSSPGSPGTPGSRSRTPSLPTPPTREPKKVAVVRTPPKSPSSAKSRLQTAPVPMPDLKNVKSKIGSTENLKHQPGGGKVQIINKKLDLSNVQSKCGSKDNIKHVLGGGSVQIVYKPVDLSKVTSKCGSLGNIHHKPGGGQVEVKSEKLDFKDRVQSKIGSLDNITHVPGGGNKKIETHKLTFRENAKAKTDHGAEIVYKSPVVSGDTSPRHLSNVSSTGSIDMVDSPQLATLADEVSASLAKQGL
T6 sequence (P10636 other isoform, or with tags, fused parts or gaps mutant): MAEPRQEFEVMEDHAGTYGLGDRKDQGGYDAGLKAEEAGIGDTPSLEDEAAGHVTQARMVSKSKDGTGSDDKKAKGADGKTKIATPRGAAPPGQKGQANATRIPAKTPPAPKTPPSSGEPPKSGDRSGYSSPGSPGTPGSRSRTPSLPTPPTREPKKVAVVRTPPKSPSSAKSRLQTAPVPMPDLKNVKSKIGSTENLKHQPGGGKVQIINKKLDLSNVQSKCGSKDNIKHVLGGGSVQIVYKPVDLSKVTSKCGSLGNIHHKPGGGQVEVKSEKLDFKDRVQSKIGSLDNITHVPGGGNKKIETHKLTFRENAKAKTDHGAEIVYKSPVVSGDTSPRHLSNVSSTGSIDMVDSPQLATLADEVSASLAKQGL

B1: humanized 16B5 antibody, version H1L1 (antibody, V domains shown)
VH: QVQLVQSGSELKKPGASVKVSCKASGYTFTYHGMDWVRQAPGQGLEWMGWINTYSGVPTYADDFKGRFVFSLDTSVSTAYLQISSLKAEDTAVYFCARRRDFTMDFWGQGTTVTVSS
VL: NIVLTQSPDSLAVSLGERATINCKSSQSLLNSRTRKNYLAWFQQKPGQPPKLLIYWASTRESGVPDRFSGSGSGTDFTLTISSLQAEDVAVYYCKQSYTLRTFGGGTKVEIKR
With B1, in experiment [1], the Kd – broadly, a measure of binding affinity in units of concentration – came out at 0.617 nM; the koff (usually a measure of how fast the partners let go of each other) came out at 0.00215 s⁻¹; the kon – broadly, the second-order rate constant of association – is 3.5e+06 M⁻¹ s⁻¹.

B2: humanized 16B5 antibody, version H1L2 (antibody, V domains shown)
VH: B1 VH
VL: B1 VL with P49S
For the molecule B2, in experiment [1], the Kd is 0.286 nM, the koff is 0.00342 s⁻¹ and the kon came out at 1.2e+07 M⁻¹ s⁻¹.

B3: humanized 16B5 antibody, version H1L3 (antibody, V domains shown)
VH: B1 VH
VL: B1 VL with N1D, P49S
Turning to B3, in experiment [1], the Kd stood at 0.32 nM, the dissociation rate constant (koff) was determined as 0.00398 s⁻¹ and the kon came to 1.25e+07 M⁻¹ s⁻¹.

B4: murine monoclonal anti-tau antibody 16B5 (antibody, V domains shown)
VH: QIQLVQSGPELKKPGETVKISCKASGYPFTYHGMDWVKQAPWGGLEWMGWINTYSGVPTYADDFKGRFAFSLETSVGTAYLQINNLKNEDTATYFCARRRDFTMDFWGQGTSVTVSS
VL: NIVLSQSPSSLAVSPGEKVTMSCKSSQSLLNSRTRKNYLAWFQQKPGQSPKLLIYWASTRESGVPDRFTGSGSGTDFTLTISSVQAEDLAVYYCKQSYTLRTFGGGTNLEIKR
notes: Mouse monoclonal antibody; the isotype control used alongside it is IgG1; also called 16B5 monoclonal antibody; pan antibody 16B5
With B4, the binding result in experiment [2] is on record as “binds”; in experiment [3] it was “binds”; in experiment [4] it was “binds”; in experiment [5] it was “binds”; in experiment [6], “binds”; in experiment [7], “no binding (tested: 0.2 µg/mL)”. Moreover, the binding result in experiment [8] is given as “no binding (tested: 0.2 µg/mL)”.
